Laboratory results published in patent publication US20220047716A1 (SUTRO BIOPHARMA, published 2022).
Positions count from the first letter of the chain named.

B1: SRP1848-F04 (antibody, V domains shown)
VH: EVQLVESGGGLVQPGGSLRLSCAASGFNISNYSIHWVRQAPGKGLEWVGEIYPIDGITDYADSVKGRFTISADTSKNTAYLQMNSLRAEDTAVYYCARGSWFWRSGYGYYLDYWGQGTLVTVSS
VL: not shown
B2: SRP1848-A10 (antibody, V domains shown)
VH: B1 VH with S30R, N31K, V37A, E50D, Y52F, G56D, F102S, R104P, Y107H, G108S
VL: not shown
B3: SRP1848-C07 (antibody, V domains shown)
VH: B1 VH with S30R, N31K, E50D, Y52F, V64M, F102S, R104P, S105A, L111Q
VL: not shown
B4: SRP1848-B10 (antibody, V domains shown)
VH: B1 VH with I29T, S30T, N31T, Y32K, I54R, S100G, F102H, G108S
VL: not shown
B5: SRP1848-C04 (antibody, V domains shown)
VH: B1 VH with S30R, N31H, I54G, D55P, I57N, W101L, F102S, S105A
VL: not shown
B6: SRP1848-A06 (antibody, V domains shown)
VH: B1 VH with S30G, Y32S, S33Y, E50G, Y52T, I57N, S100A, F102S, L111I
VL: not shown
B7: SRP1848-C01 (antibody, V domains shown)
VH: EVQLVESGGGLVQPGGSLRLSCAASGFNIGNSYIHWVRQAPGKGLEWVGGVTPNDGYTDYADSVKGRFTISADTSKNTTYLQMNSLRAEDTAVYYCARGSWFWRAGYGYYLDYWGQGALVTVSS
VL: not shown
B8: SRP1848-B07 (antibody, V domains shown)
VH: EVQLVESGGGLVQPGGSLRLSCAASGFNISRFYIHWVRQAPGKGLEWVGGISPYDGFTDYADSVKGRFTISADTSKNTAYLQMNSLRAEDTAVYYCARGSWSWPAGYGYYQDYWGQGTLVTVSS
VL: not shown
B9: SRP1848-C05 (antibody, V domains shown)
VH: B1 VH with S30R, N31K, E50D, Y52F, T58N, F102S, R104K, S105A
VL: not shown
B10: SRP1848-C03 (antibody, V domains shown)
VH: B1 VH with S30G, N31V, I57N, F102A, G108S
VL: not shown
B11: SRP1848-B01 (antibody, V domains shown)
VH: B1 VH with S30R, I54V, S100F, F102S, R104P, G108S, Y110F
VL: not shown
B12: SRP1848-C10 (antibody, V domains shown)
VH: B8 VH with S30R, R31T, F32Y, Y54I, F57Y, Q111L
VL: not shown
B13: SRP1848-E01 (antibody, V domains shown)
VH: B8 VH with S30T, R31N, F32K, S52T, Y54F
VL: not shown
B14: SRP1848-B09 (antibody, V domains shown)
VH: EVQLVESGGGLVQPGGSLRLSCAAGGFNITNYYIHWVRQAPGKGLEWVGGITPVDGYTDYADRVKGRFTISADTSKNTAYLQMNSLRAEDTAVYYCARGAWSWRSGYGYYMDYWGQGTLVTVSS
VL: not shown
B15: SRP1848-B04 (antibody, V domains shown)
VH: B1 VH with G26S, Y32H, I54V, S100R, W101Y, F102S, S105A, G108S
VL: not shown
B16: SRP1848-D09 (antibody, V domains shown)
VH: B1 VH with S33Y, E50G, Y52S, I54N, I57Y, F102S, S105H
VL: not shown
B17: SRP1848-A09 (antibody, V domains shown)
VH: B1 VH with S30R, N31K, Y32Q, E50S, Y52F, I54N, I57T, M83V, Y110F, D112E
VL: not shown
B18: SRP1848-B06 (antibody, V domains shown)
VH: B14 VH with G25S, T30S, V54I, R63S, A100F, R104P, M111Q
VL: not shown
B19: SRP1848-D10 (antibody, V domains shown)
VH: B1 VH with N31R, Y32N, E50W, Y52S, I54N, I57T, T74G, S100A, F102S, L111I
VL: not shown
B20: SRP1848-D07 (antibody, V domains shown)
VH: B1 VH with N31K, S33Y, E50G, Y52S, I54N, I57Y, T69A, S100F, F102A
VL: not shown
B21: SRP1848-B11 (antibody, V domains shown)
VH: B1 VH with S30G, Y32N, E50D, Y52S, I57F, F102S, S105A
VL: not shown
B22: SRP1848-D02 (antibody, V domains shown)
VH: B14 VH with G25S, T30S, N31H, Y32N, V54Q, R63S, S85R, S105A, M111L
VL: not shown
B23: SRP1848-A08 (antibody, V domains shown)
VH: B1 VH with F27S, S30R, N31K, Y32H, E50S, I54N, I57T, S105A
VL: not shown
B24: SRP1848-A04 (antibody, V domains shown)
VH: B1 VH with S30D, N31Q, Y32S, E50V, I54V, I57T, S100A, F102S, L111I
VL: not shown
B25: SRP1848-B05 (antibody, V domains shown)
VH: B1 VH with S33Y, E50G, Y52S, I57Y, V64M, N84S, R104Q
VL: not shown
B26: SRP1848-B03 (antibody, V domains shown)
VH: B8 VH with R31M, F32K, S52T, Y54I, F57M, A105S, G108S, Q111L
VL: not shown
B27: SRP1848-A07 (antibody, V domains shown)
VH: B1 VH with S30G, N31Y, Y32H, Y52F, I54V, I57T, Q82H, S100F, F102A
VL: not shown
B28: SRP1848-D04 (antibody, V domains shown)
VH: B1 VH with N31H, I54R, R87S, S100Y
VL: not shown
B29: SRP1848-D05 (antibody, V domains shown)
VH: B8 VH with R31I, F32S, Y54I, F57Y, P104R, Q111L
VL: not shown
B30: SRP1848-A01 (antibody, V domains shown)
VH: EVQLVESGGGLVQPGGSLRLSCAASGFNITRYSIHWVRQAPGKGLEWVAGILPESGGTSYADSVKGRFTISADTSKNTAYLQMNSLRAEDTAVYYCARHIYPWDWFSNYVLDYWGQGTLVTVSS
VL: not shown

target: human folate receptor alpha (hFOLR1) (human, UniProt P15328 25-234); experiment: cell-based or functional assay
Sequence (P15328 25-234 limits assumed): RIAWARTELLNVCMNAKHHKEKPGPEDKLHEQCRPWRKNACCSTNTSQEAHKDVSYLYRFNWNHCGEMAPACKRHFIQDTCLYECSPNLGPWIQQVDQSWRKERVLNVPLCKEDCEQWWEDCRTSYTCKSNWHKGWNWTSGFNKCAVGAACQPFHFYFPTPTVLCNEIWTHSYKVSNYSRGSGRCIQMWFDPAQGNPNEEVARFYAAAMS

Binder	Igrov 2° antibody cell killing EC50 [pM]	Igrov 2° antibody cell killing Span [%]	KB 2° antibody cell killing EC50 [pM]	KB 2° antibody cell killing Span [%]
B1	15	73	96	93
B2	27	75	33	96
B3	13	67	65	93
B4		71	40	97
B5	16	68	6	94
B6		72	46	93
B7	23	68		90
B8	38	73	79	96
B9	21	62	73	92
B10	35	72	74	93
B11	31	82	64	95
B12	36	75	57	96
B13	29	72	88	92
B14	27	74	73	97
B15	18	70	35	94
B16	23	70	42	91
B17	26	71		93
B18	22	72	58	95
B19	12	54	16	90
B20	32	71	75	94
B21	26	74	58	93
B22	27	71	34	93
B23	13	65	39	93
B24	15	64	52	92
B25	40	72	65	94
B26	28	66	50	94
B27	29	68	62	95
B28	68	77	380	97
B29		73	55	92
B30	15	71	64	94
